Laboratory results reported in patent US20200078441A1 (TAIPEI VETERANS GENERAL HOSPITAL, published 2020).

B1: PepSpot array peptide 22 (peptide)
peptide: ELYGAANQDSGVSSY
notes: 15-mer of the MSI1 C-terminus spotted on the PepSpot membrane; also called Index 22
B2: PepSpot array peptide 15 (peptide)
peptide: AYGPMAAAAAAAAVV
notes: 15-mer of the MSI1 C-terminus spotted on the PepSpot membrane; also called Index 15
B3: PepSpot array peptide 14 (peptide)
peptide: LTAIPLTAYGPMAAA
notes: 15-mer of the MSI1 C-terminus spotted on the PepSpot membrane; also called Index 14
B4: PepSpot array peptide 21 (peptide)
peptide: TSPGPMAELYGAANQ
notes: 15-mer of the MSI1 C-terminus spotted on the PepSpot membrane; also called Index 21
B5: PepSpot array peptide 13 (peptide)
peptide: SAPVLPELTAIPLTA
notes: 15-mer of the MSI1 C-terminus spotted on the PepSpot membrane; also called Index 13
B6: PepSpot array peptide 12 (peptide)
peptide: VERTPLPSAPVLPEL
notes: 15-mer of the MSI1 C-terminus spotted on the PepSpot membrane; also called Index 12
B7: PepSpot array peptide 16 (peptide)
peptide: AAAAAAVVRGTGSHP
notes: 15-mer of the MSI1 C-terminus spotted on the PepSpot membrane; also called Index 16
B8: PepSpot array peptide 23 (peptide)
peptide: QDSGVSSYISAASPA
notes: 15-mer of the MSI1 C-terminus spotted on the PepSpot membrane; also called Index 23

target: T1, recombinant His-tagged AGO2 protein (human Argonaute 2, baculovirus-expressed) (human, UniProt Q9UKV8 1-859); assay: PepSpot peptide array incubated with recombinant His-tagged AGO2 (2 µg), detected with anti-His-HRP
T1 construct: Expressed in High Five insect cells and purified on nickel resin; also called His-AGO2; HisAGO2
T1 sequence (Q9UKV8 other isoform, or with tags, fused parts or gaps limits assumed): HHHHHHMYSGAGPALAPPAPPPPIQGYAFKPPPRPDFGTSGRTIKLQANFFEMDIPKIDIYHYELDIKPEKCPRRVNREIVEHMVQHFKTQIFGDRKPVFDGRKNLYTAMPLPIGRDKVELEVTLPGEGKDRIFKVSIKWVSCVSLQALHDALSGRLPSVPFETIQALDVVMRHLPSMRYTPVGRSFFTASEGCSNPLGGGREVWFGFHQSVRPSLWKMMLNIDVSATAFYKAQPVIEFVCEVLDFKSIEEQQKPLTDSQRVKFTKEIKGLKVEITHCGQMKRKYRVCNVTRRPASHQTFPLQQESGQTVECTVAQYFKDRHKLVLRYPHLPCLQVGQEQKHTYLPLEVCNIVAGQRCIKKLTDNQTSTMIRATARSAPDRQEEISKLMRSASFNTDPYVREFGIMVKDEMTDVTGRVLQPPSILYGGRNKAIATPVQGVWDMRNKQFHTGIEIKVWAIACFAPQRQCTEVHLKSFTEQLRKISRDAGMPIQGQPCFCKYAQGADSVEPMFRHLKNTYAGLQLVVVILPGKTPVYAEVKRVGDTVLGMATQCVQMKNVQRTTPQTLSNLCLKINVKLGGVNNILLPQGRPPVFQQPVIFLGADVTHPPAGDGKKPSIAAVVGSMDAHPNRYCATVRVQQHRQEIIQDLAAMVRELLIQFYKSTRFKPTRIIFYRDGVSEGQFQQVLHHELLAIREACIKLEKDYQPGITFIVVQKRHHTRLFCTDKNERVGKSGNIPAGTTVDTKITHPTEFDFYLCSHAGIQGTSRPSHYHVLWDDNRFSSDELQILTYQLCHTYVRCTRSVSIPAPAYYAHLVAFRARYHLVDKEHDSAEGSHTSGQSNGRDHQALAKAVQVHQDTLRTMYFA
Protocol: The association rate constant (Kₐ), dissociation rate constant (Kd), and equilibrium dissociation constant (KD) were calculated and presented in the chart (bottom).

Binding result, no binding:
B1
B2
B3
B4
B5
B6
B7
B8
